This is an account of results in patent EP4810052A2 (Gubra A/S, dated 2026).

T1: human corticotropin-releasing hormone receptor 1 (human, UniProt P34998 24-415)
T1 sequence (looked up): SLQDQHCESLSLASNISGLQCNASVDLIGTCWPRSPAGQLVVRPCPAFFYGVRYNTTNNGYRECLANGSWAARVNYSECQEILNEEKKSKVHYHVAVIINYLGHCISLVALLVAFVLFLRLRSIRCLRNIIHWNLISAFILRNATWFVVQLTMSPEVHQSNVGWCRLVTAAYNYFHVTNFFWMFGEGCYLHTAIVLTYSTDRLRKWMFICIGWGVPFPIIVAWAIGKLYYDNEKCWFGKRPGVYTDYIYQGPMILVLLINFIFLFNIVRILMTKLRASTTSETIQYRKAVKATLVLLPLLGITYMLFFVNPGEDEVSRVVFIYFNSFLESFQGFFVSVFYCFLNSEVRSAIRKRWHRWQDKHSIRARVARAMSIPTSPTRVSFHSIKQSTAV

B1: SEQ ID NO: 5 (peptide)
peptide: [NMeI]VLSLDVPIGLLQILLEQARARAAREQAKTNAEILAEV-NH2
modifications: not fully specified (residue 29); also: lipid and spacer on Lys29 not given here
B2: SEQ ID NO: 237 (peptide)
peptide: IVLSLDVPIGLLQILLSQARARAAREQAK[Aib]NAEI[Nle]AEV-NH2
modifications: not fully specified (residue 29); also: lipid and spacer on Lys29 not given here
B3: SEQ ID NO: 236 (peptide)
peptide: IVLSLDVPIGLLQILLEQARARAAREQAK[Aib]NAEI[Nle]AEI-NH2
modifications: not fully specified (residue 29); also: lipid and spacer on Lys29 not given here
B4: SEQ ID NO: 239 (peptide)
peptide: IVLSLDVPIGLLQILLSQARARAAREQAKENAEI[Nle]AEV-NH2
modifications: not fully specified (residue 29); also: lipid and spacer on Lys29 not given here
B5: SEQ ID NO: 69 (peptide)
peptide: IVLSLDVPIGLLQILLEQARARAAREQAKTNAEI[Nle]AEI-NH2
modifications: not fully specified (residue 29); also: lipid and spacer on Lys29 not given here
B6: SEQ ID NO: 45 (peptide)
peptide: IVLSLDVPIGLLQILLEQARARAAREQAKTNAEI[Nle]AEV-NH2
modifications: not fully specified (residue 29); also: lipid and spacer on Lys29 not given here
B7: SEQ ID NO: 234 (peptide)
peptide: IVLSLDVPIGLLQILLSQARARAAREQAKTN[Aib]EI[Nle]AEV-NH2
modifications: not fully specified (residue 29); also: lipid and spacer on Lys29 not given here
B8: SEQ ID NO: 20 (peptide)
peptide: [NMeI]VLSLDVPIGLLQILLEQARARAAREQAK[Aib]NAEILAEV-NH2
modifications: not fully specified (residue 29); also: lipid and spacer on Lys29 not given here
B9: SEQ ID NO: 19 (peptide)
peptide: IVLSLDVPIGLLQILLEQARARAAREQAK[Aib]NAEILAEV-NH2
modifications: not fully specified (residue 29); also: lipid and spacer on Lys29 not given here

Non-standard residues stand in square brackets, D forms with d. No end group written: not given here. NMeI = CC[C@H](C)[C@H](NC)C(=O)O; Nle = CCCC[C@H](N)C(=O)O; lip = not defined here; Aib = CC(C)(N)C(=O)O

In the first test the target is T1, human corticotropin-releasing hormone …. The test is described as follows: cell-based or functional assay.
Consider Ac-IVLSLDVPIGLLQILLEQARARAAREQAK(lip)TNAEILAEV-NH2 (not fully specified; reading uncertain) [SEQ ID NO: 8], for which the “hCRHR1 EC50 (nM); HTRF cAMP assay, CHO-K1 cells stably expressing hCRHR1” value (“hCRHR1 EC50 (nM); HTRF cAMP assay” for short) was 560 nM.

On to B1, for which the “hCRHR1 EC50 (nM); HTRF cAMP assay” value was over 5000 nM.

In the case of IVLSLDVPIGLK(lip)QILLEQARARAAREQATTNAEILAEV-NH2 (not fully specified; reading uncertain) [SEQ ID NO: 261], the “hCRHR1 EC50 (nM); HTRF cAMP assay” value is over 5000 nM.

As for [NMeI]VLSLDVPIGLLQILLEQEKQEKEKQQAK(lip)TNAQILAQV-NH2 (not fully specified; reading uncertain) [SEQ ID NO: 9 (prior art peptide)], the “hCRHR1 EC50 (nM); HTRF cAMP assay” value stood at 510 nM.

As for IVLSLDVPIGLLQILLEQARARAAREQATK(lip)NAEILAEV-NH2 (not fully specified; reading uncertain) [SEQ ID NO: 4], the “hCRHR1 EC50 (nM); HTRF cAMP assay” value was over 5000 nM.

Turning to K(lip)IVLSLDVPIGLLQILLEQARARAAREQATTNAEILAEV-NH2 (not fully specified; reading uncertain) [SEQ ID NO: 11 (prior art peptide)], the “hCRHR1 EC50 (nM); HTRF cAMP assay” value amounted to 670 nM.

As for PVLSLDVPIGLLQILLEQARARAAREQAK(lip)TNAEILAEV-NH2 (not fully specified; reading uncertain) [SEQ ID NO: 7], the “hCRHR1 EC50 (nM); HTRF cAMP assay” value was over 5000 nM.

On to [NMeI]VTSLDVPIGLLQILLEQEKQEKEKQQAK(lip)TNAEILAQV-NH2 (reading uncertain) [SEQ ID NO: 10 (prior art peptide)], for which the “hCRHR1 EC50 (nM); HTRF cAMP assay” value turned out to be 68 nM.

Regarding IVLSLDVPIGLLQILLEQARARAAREQAK(lip)TNARILARV-NH2 (not fully specified; reading uncertain) [SEQ ID NO: 2 (lipidated version of native UCN2)], the “hCRHR1 EC50 (nM); HTRF cAMP assay” value was over 5000 nM.

lip-IVLSLDVPIGLLQILLEQARARAAREQATTNAEILAEV-NH2 (not fully specified; reading uncertain) [SEQ ID NO: 260]: the “hCRHR1 EC50 (nM); HTRF cAMP assay” value was 110 nM.

Another test has the same target. The test is described as follows: cell-based or functional assay. This is another data set of the same source.
As for B2, the “hCRHR1 EC50 (nM); HTRF cAMP assay” value was over 5000 nM.

B3: the “hCRHR1 EC50 (nM); HTRF cAMP assay” value is over 5000 nM.

For B4, the “hCRHR1 EC50 (nM); HTRF cAMP assay” value is over 5000 nM.

As for B5, the “hCRHR1 EC50 (nM); HTRF cAMP assay” value is over 5000 nM.

As to B6, the “hCRHR1 EC50 (nM); HTRF cAMP assay” value came to 56 nM.

In the case of IVLSLDVPIGLLQILLSQARARAAREQAK(lip)TNAEI[Nle]AEI-NH2 (not fully specified; reading uncertain) [SEQ ID NO: 89], the “hCRHR1 EC50 (nM); HTRF cAMP assay” value is over 5000 nM.

As to B7, the “hCRHR1 EC50 (nM); HTRF cAMP assay” value was over 5000 nM.

With [NMeI]VLSLDVPIGLLQILLSQARARAAREQAK(lip)ENAEI[Nle]AEV-NH2 (reading uncertain) [SEQ ID NO: 101], the “hCRHR1 EC50 (nM); HTRF cAMP assay” value was over 5000 nM.

As for IVLSLDVPIGLLQILLSQARARAAREQAK(lip)TNAEI[Nle]AEV-NH2 (not fully specified; reading uncertain) [SEQ ID NO: 83], the “hCRHR1 EC50 (nM); HTRF cAMP assay” value was over 5000 nM.

On to [NMeI]VLSLDVPIGLLQILLSQARARAAREQAK(lip)[Aib]NAEI[Nle]AEV-NH2 (reading uncertain) [SEQ ID NO: 132], for which the “hCRHR1 EC50 (nM); HTRF cAMP assay” value is over 5000 nM.

For a further test the target is unchanged. The test is described as follows: cell-based or functional assay. The source holds these as a separate data set.
In the case of IVLSLDVPIGLLQILLEQARARAAREQAK(lip)TNIEILAEV-NH2 (not fully specified; reading uncertain) [SEQ ID NO: 13], the “hCRHR1 EC50 (nM); HTRF cAMP assay” value is over 5000 nM.

As for [NMeI]VLSLDVPIGLLQILLEQARARAAREQAK(lip)ENAEILAEV-NH2 (reading uncertain) [SEQ ID NO: 18], the “hCRHR1 EC50 (nM); HTRF cAMP assay” value was over 5000 nM.

As to B8, the “hCRHR1 EC50 (nM); HTRF cAMP assay” value is over 5000 nM.

On to IVLSLDVPIGLLQILLEQARARAAREQAK(lip)TNLEILAEV-NH2 (not fully specified; reading uncertain) [SEQ ID NO: 12], for which the “hCRHR1 EC50 (nM); HTRF cAMP assay” value is over 5000 nM.

Consider IVLSLDVPIGLLQILLEQARARAAREQAK(lip)ENAEILAEV-NH2 (not fully specified; reading uncertain) [SEQ ID NO: 17], for which the “hCRHR1 EC50 (nM); HTRF cAMP assay” value is over 5000 nM.

Regarding IVLSLDVPIGLLQILLEQARARAAREQAK(lip)TNVEILAEV-NH2 (not fully specified; reading uncertain) [SEQ ID NO: 14], the “hCRHR1 EC50 (nM); HTRF cAMP assay” value was over 5000 nM.

As for IVLSLDVPIGLLQILLEQARARAAREQAK(lip)TN[Aib]EILAEV-NH2 (reading uncertain) [SEQ ID NO: 15], the “hCRHR1 EC50 (nM); HTRF cAMP assay” value was over 5000 nM.

Consider B9, for which the “hCRHR1 EC50 (nM); HTRF cAMP assay” value is over 5000 nM.
